Assay results published in paper PMC10875832.

Assays:
[1] = biological target: FAdV-4 fiber1 knob (fowl adenovirus 4 (FAdV-4)); test: crystal structure; crystal in 20% (w/v) PEG 4000 and 0.15 M potassium sulfate; one chain in the asymmetric unit, trimer by crystal symmetry
[2] = biological target: EDSV fibre knob (egg drop syndrome virus (EDSV)); test: SPR; Biacore X100, CM5 sensor chip; fibre knobs immobilised, soluble CAR domains in solution (said for D12); 1:1 binding model
[3] = biological target: FAdV-4 fiber1 knob (fowl adenovirus 4 (FAdV-4)); test: as above
[4] = biological target: CELO fiber1 knob (chicken embryo lethal orphan (CELO) virus); test: as above

## FAdV-4 fiber1 knob (domain or fragment)
[1]
  stoichiometry N: 3

## soluble CAR D1 domain (domain or fragment)
[2]
  Kd: 2.76 µM
[3]
  Kd: 7.42 µM

## soluble CAR D2 domain (domain or fragment)
[4]
  Kd: 11200 µM
  fold weaker affinity than the D1 domain for the same knob: 1000 fold
[2]
  Kd: 4.77 µM
[3]
  Kd: 6.29 µM

## soluble CAR D12 (domain or fragment)
[2]
  Kd: 2.67 µM
[3]
  Kd: 0.868 µM
